According to paper PMC4102529, “FRET Based Quantification and Screening Technology Platform for the Interactions of Leukocyte Function-Associated Antigen-1 (LFA-1) with InterCellular Adhesion Molecule-1 (ICAM-1)” (PLoS ONE, 2014):

System: LFA-1 (αLβ2)
Experiment: Steady-state in-solution FRET binding assay (Alexa Fluor 488-LFA-1 donor / Alexa Fluor 555-D1-D2-Fc acceptor) to determine Kd
Set-up: species or system human
Method: In determining the equilibrium dissociation constant (Kd) between the interacting protein pairs, LFA-1 and D1-D2-Fc, from the FRET binding assay, several concentrations of the acceptor conjugate, Alexa Fluor 555-D1-D2-Fc, were added to a fixed concentration of the donor conjugate, Alexa Fluor 488-LFA-1. The donor conjugate concentration was kept constant at 100 nM while the acceptor conjugate concentration was varied from 0 upto 1.6 µM. These FRET mixtures, with different donor-to-acceptor ratios, were excited by 470 and 530 nm. […] The peak intensity at 570 nm has contributions from unquenched donor emissions, direct acceptor emission and the emission of acceptor due to FRET (FFRET). However, when the FRET mixture was excited with 530 nm, only a single peak corresponding to the direct emission of the acceptor (FA) was observed.
Thus, to obtain the absolute maximum FRET emission signal at 570 nm (FFRETmax), we need to quantify each contribution from the donor and acceptor emissions as well as the FRET emission signal (FFRET). […]
In general, the direct emission of Alexa Fluor 488-LFA-1 at 570 nm is expected to be proportional to its emission at 520 nm when excited at 470 nm. […] The calculated value of “b” was 0.101±0.008. […]

- maximum FRET emission signal (FFRETmax) (at 570 nm, 100 nM Alexa Fluor 488-LFA-1, Alexa Fluor 555-D1-D2-Fc 0 to 1.6 µM, fit of Eq. (6), adj. R-square = 0.9895): 6.33×10^3 RFU
- Kd (steady-state FRET, 100 nM Alexa Fluor 488-LFA-1 fixed, Alexa Fluor 555-D1-D2-Fc 0 to 1.6 µM, PBS, pH 7.4, 1 mM EGTA, 2 mM Mg^2+, 50 µl, 96-well plate, excitation 470 nm, emission 520/570 nm, nonlinear fit Eq. (6), one-to-one, data points mean (rms) of 9 measurements, 3 samples, read-out: dissociation constant (Kd) of the LFA-1/D1-D2-Fc interaction): 17.9 ± 1.34 nM
B1: D1-D2-Fc: chimeric molecule consisting of the amino-terminal first two Ig domains of human ICAM-1 (D1-D2) fused to IgG1 Fc region (protein)
chain: QTSVSPSKVILPRGGSVLVTCSTSCDQPKLLGIETPLPKKELLLPGNNRKVYELSNVQEDSQPMCYSNCPDGQSTAKTFLTVYWTPERVELAPLPSWQPVGKNLTLRCQVEGGAPRANLTVVLLRGEKELKREPAVGEPAEVTTTVLVRRDHHGANFSCRTELDLRPQGLELFENTSAPYQLQTFVLPATPPQLVSPRVLEVDTQGTVVCSLDGLFPVSEAQVHLALGDQRLNPTVTYGNDSFSAKASVSVTAEDEGTQRLTCAVILGNQSQETLQTVTIYSFPAPNVILTKPEVSEGTEVTVKCEAHPRAKVTLNGVPAQPLGPRAQLLLKATPEDNGRSFSCSATLEVAGQLIHKNQTRELRVLYGPRLDERDCPGNWTWPENSQQTPMCQAWGNPLPELKCLKDGTFPLPIGESVTVTRDLEGTYLCRARSTQGEVTRKVTVNVLSPRYEIVIITVVAAAVIMGTAGLSTYLYNRQRKIKKYRLQQAQKGTPMKPNTQATPP
modifications: Alexa Fluor 555 (succinimidyl ester) on amine groups (amine terminus, ε-amino groups of lysines), random; F/P molar ratio 3.14±0.27; left off: Fc (IgG1), end not stated, kept
notes: chimeric molecule consisting of the amino-terminal first two Ig domains of human ICAM-1 (D1-D2) fused to IgG1 Fc region
